Test results: patent publication US20230212533

Key:
[1] = target: Bovine mitochondrial cytochrome c, P62894
[2] = target: T1, CycN cytochrome c protein (Pseudomonas putida S16)
T1 chain: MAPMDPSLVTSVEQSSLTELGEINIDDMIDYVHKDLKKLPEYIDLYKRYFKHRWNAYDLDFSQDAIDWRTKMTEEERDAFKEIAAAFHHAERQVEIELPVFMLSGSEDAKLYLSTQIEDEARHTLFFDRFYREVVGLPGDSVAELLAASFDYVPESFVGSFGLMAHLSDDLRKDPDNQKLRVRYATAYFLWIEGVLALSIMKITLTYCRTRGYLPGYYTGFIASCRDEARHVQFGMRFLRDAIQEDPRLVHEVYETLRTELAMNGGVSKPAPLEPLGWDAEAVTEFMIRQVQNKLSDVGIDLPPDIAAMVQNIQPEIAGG

Sequence of Bovine mitochondrial cytochrome c, P62894 (P62894 2-105): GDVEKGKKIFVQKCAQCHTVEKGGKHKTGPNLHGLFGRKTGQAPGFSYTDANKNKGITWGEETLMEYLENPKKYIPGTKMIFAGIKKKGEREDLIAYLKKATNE

B1: NicA2 nicotine oxidoreductase (wild-type, Pseudomonas putida S16) (protein)
chain: TQKTNRASTVKGGFDYDVVVVGGGFAGATAARECGLQGYRTLLLEARSRLGGRTFTSRFAGQEIEFGGAWVHWLQPHVWAEMQRYGLGVVEDPLTNLDKTLIMYNDGSVESISPDEFGKNIRIAFEKLCHDAWEVFPRPHEPMFTERARELDKSSVLDRIKTLGLSRLQQAQINSYMALYAGETTDKFGLPGVLKLFACGGWNYDAFMDTETHYRIQGGTIGLINAMLTDSGAEVRMSVPVTAVEQVNGGVKIKTDDDEIITAGVVVMTVPLNTYKHIGFTPALSKGKQRFIKEGQLSKGAKLYVHVKQNLGRVFAFADEQQPLNWVQTHDYSDELGTILSITIARKETIDVNDRDAVTREVQKMFPGVEVLGTAAYDWTADPFSLGAWAAYGVGQLSRLKDLQAAEGRILFAGAETSNGWHANIDGAVESGLRAGREVKQLLS
- reduction of bovine cytochrome c, UV-VIS absorbance 250-600 nm for 15 minutes; 6.84 µM bovine cytochrome c with NicA2 and nicotine [1]: The bovine mitochondrial cytochrome c was not efficiently reduced by this system
- kobs for the second phase, stopped-flow at 542 nm [2]: invariant at ˜5.5 s^-1 independent of the CycNox concentration used
- reduction of CycN heme, UV-VIS absorbance (Soret band, 410 and 550 nm); 3.75 µM CycN, 30 nM NicA2, 100 µM nicotine [2]: a characteristic increase and shift of Soret banding pattern was observed, which indicated that CycN had become reduced
- time to complete electron transfer, anaerobic stopped-flow; 15 µM NicA2-Flred mixed with excess CycNox [2]: Electron transfer between NicA2-Flred and CycNox appeared to be very rapid, being complete in under one second
